Measurements published in FireProtDB (doi:10.1021/bi5005975).
Substitutions are numbered along the chain they refer to. Where “and” joins values, the source holds several entries; their conditions need not be identical. Equal entries are not always repeated.

B1: wild type, Q9NAV7 (protein)
chain: MGFKQDIATLRGDLRTYAQDIFLAFLNKYPDEKRNFKNYVGKSDQELKSMAKFGDHTEKVFNLMMEVADRATDCVPLASDASTLVQMKQHSGLTTGNFEKLFVALVEYMRASGQSFDSQSWDRFGKNLVSALSSAGMK
B2: wild type, Q9NAV8 (protein)
chain: B1 chain with L10I, K33R, N35Y, S82N, G92S

Conditions: Amphitrite ornata; pH 7; 20 °C; GdnHCl; UV?visible spectrophotometer; potassium phosphate 100 mM; transition: 2; reversible: yes; whole UniProt chain shown
For B1, the “denaturant midpoint (higher = more stable)” value was 1.09 M and the unfolding free energy was 9.25 kJ/mol.

Same assay, conditions: Amphitrite ornata; pH 7; 20 °C; Urea; UV?visible spectrophotometer; potassium phosphate 100 mM; transition: 2; reversible: yes; whole UniProt chain shown
In the case of B1, the “denaturant midpoint (higher = more stable)” value is reported as 4.12 M and the unfolding free energy is reported as 10.1 kJ/mol.

Same assay, conditions: Amphitrite ornata; pH 7; Thermal; DSC; degassed buffer (potassium phosphate) 100 mM; transition: 2; reversible: yes; whole UniProt chain shown
For B1, the Tm was 47.7 °C and 48.6 °C, the “unfolding enthalpy (calorimetric)” value was 691 kJ/mol and 695 kJ/mol and the “unfolding enthalpy (van 't Hoff)” value was 1400 kJ/mol and 1660 kJ/mol.
For B2, the Tm was 50.5 °C and 49.8 °C, the “unfolding enthalpy (calorimetric)” value was 767 kJ/mol and 682 kJ/mol and the “unfolding enthalpy (van 't Hoff)” value was 1610 kJ/mol and 1720 kJ/mol.

Same assay, conditions: Amphitrite ornata; pH 7; Thermal; UV?visible spectrophotometer; potassium phosphate 100 mM; transition: 2; reversible: yes; whole UniProt chain shown
Work on B1 yielded a Tm of 46 °C.
